{
  "source": "patent US20060104978A1",
  "about": "“Methods and compositions for PDGF-C activation and inhibition” (LUDWIG INSTITUTE FOR CANCER RESEARCH, priority 2003, published 2006)",
  "key": {"latent PDGF-CC": {"biological_target": "T1, latent PDGF-CC (Homo sapiens, UniProt Q9NRA1)", "T1 construct": "cotransfected with full-length PDGF-C (Li et al, 2000), full-length PDGF-D (Bergsten et al, 2001); expressed in transfected cells; host or cells: COS-1 cells", "T1 sequence (Q9NRA1 23-345)": "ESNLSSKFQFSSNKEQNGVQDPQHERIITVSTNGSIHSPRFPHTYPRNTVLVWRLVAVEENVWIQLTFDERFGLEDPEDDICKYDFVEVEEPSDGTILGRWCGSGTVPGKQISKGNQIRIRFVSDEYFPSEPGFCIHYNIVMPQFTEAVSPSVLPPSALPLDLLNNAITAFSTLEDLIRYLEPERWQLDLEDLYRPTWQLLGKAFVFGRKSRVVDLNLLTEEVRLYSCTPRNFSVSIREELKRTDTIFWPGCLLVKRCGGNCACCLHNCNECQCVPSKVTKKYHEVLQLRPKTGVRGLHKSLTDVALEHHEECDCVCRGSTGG", "assay": "Cotransfection assay in COS-1 cells: protease plus full-length PDGF-C", "format": "cell-based", "conditions": "COS-1 conditioned medium, immunoblot, 22 kDa species under reducing conditions", "from_the_text": "(§1) A cotransfection assay was established to identify serine proteases able to cleave and activate latent PDGF-CC. Expression plasmids encoding the relevant enzymes and full-length PDGF-C were cotransfected into COS-1 cells, and aliquots of the conditioned media from the transfectants were subjected to SDS-PAGE and immunoblotting using antibodies to the growth factor domain of PDGF-C. […] As a specificity control, the ability of tPA and NT to use full-length PDGF-DD as the substrate in the cotransfection assay was analysed. […] One difference in the latter results, as compared with the results from the cotransfection assay, was that purified tPA generated a second intermediate species of 32 kDa using latent PDGF-CC as the substrate. It is possible that this intermediate is the result of digestion by plasmin contamination in the tPA preparation, since the size of the fragment is similar to that of plasmincleaved PDGF-CC previously reported (Li et al, 2000). […]\nTo test the endogenous expression of PDGF-CC, subconfluent AG1523 cells and primary fibroblast cultures were cultured in serum-free DMEM overnight. […] In the case of the primary cultures, total protein concentration was measured and normalized (Bradford, 1976). […]"}, "latent PDGF-DD": {"biological_target": "T2, latent PDGF-DD (Homo sapiens, UniProt Q9GZP0)", "T2 construct": "cotransfected with full-length PDGF-C (Li et al, 2000), full-length PDGF-D (Bergsten et al, 2001); expressed in transfected cells; host or cells: COS-1 cells", "assay": "Cotransfection assay in COS-1 cells: protease plus full-length PDGF-D", "format": "cell-based", "conditions": "COS-1 conditioned medium, immunoblot", "from_the_text": "as §1, with “substrate.” for “substrate. It is possible that this intermediate is the result of digestion by plasmin contamination in the tPA preparation, since the size of the fragment is similar to that of plasmincleaved PDGF-CC previously reported (Li et al, 2000).”\nTo test the endogenous expression of PDGF-CC, subconfluent AG1523 cells and primary fibroblast cultures were cultured in serum-free DMEM overnight. […] In the case of the primary cultures, total protein concentration was measured and normalized (Bradford, 1976). […] PDGF-C and PDGF-D were detected by immunoblotting using affinity-purified polyclonal rabbit antibodies against PDGF-C (Li et al, 2000) and PDGF-D (Bergsten et al, 2001), respectively. The His6-tagged proteins were detected using an anti-His monoclonal antibody (C-terminal, Invitrogen). tPA was detected using sheep polyclonal antibodies against human tPA (ab9030, Abcam)."}},
  "data": [
    {"molecule": "neurotrypsin: human neurotrypsin, trypsin-like serine protease cloned from AG1523 cells (protein) FDSVLNDSLHHSHRHSPPAGPHYPYYLPTQQRPPRTRPPPPLPRFPRPPRALPAQRPHALQAGHTPRPHPWGCPAGEPWVSVTDFGAPCLRWAEVPPFLERSPPASWAQLRGQRHNFCRSPDGAGRPWCFYGDARGKVDWGYCDCRHGSVRLRGGKNEFEGTVEVYASGVWGTVCSSHWDDSDASVICHQLQLGGKGIAKQTPFSGLGLIPIYWSNVRCRGDEENILLCEKDIWQGGVCPQKMAAAVTCSFSHGPTFPIIRLAGGSSVHEGRVELYHAGQWGTVCDDQWDDADAEVICRQLGLSGIAKAWHQAYFGEGSGPVMLDEVRCTGNELSIEQCPKSSWGEHNCGHKEDAGVSCTPLTDGVIRLAGGKGSHEGRLEVYYRGQWGTVCDDGWTELNTYVVCRQLGFKYGKQASANHFEESTGPIWLDDVSCSGKETRFLQCSRRQWGRHDCSHREDVSIACYPGGEGHRLSLGFPVRLMDGENKKEGRVEVFINGQWGTICDDGWTDKDAAVICRQLGYKGPARARTMAYFGEGKGPIHVDNVKCTGNERSLADCIKQDIGRHNCRHSEDAGVICDYFGKKASGNSNKESLSSVCGLRLLHRRQKRIIGGKNSLRGGWPWQVSLRLKSSHGDGRLLCGATLLSSCWVLTAAHCFKRYGNSTRSYAVRVGDYHTLVPEEFEEEIGVQQIVIHREYRPDRSDYDIALVRLQGPEEQCARFSSHVLPACLPLWRERPQKTASNCYITGWGDTGRAYSRTLQQAAIPLLPKRFCEERYKGRFTGRMLCAGNLHEHKRVDSCQGDSGGPLMCERPGESWVVYGVTSWGYGCGVKDSPGVYTKVSAFVPWIKSVTKL", "values": [
      {"measurement": "cleavage of latent PDGF-CC by the coexpressed protease", "setting": "latent PDGF-CC", "result": "lacked proteolytic activity toward latent PDGF-CC"},
      {"measurement": "cleavage and activation of latent PDGF-DD by the coexpressed protease", "setting": "latent PDGF-DD", "result": "neither of the two enzymes was able to cleave and activate latent PDGF-DD"}
    ]}
  ]
}
